The target in one data set is I+HQN (UniProt P03023 SEQ:1-360, Y17H,R22N). The data set can be described thus: cell_activity; day 1 dynamic range, IPTG; 57.65 day 3. To be noted: chain copies: 4.
A further data set concerns the target T1, E+HQN (UniProt O87590 SEQ:1-337, Y17H,R22N).
T1 sequence: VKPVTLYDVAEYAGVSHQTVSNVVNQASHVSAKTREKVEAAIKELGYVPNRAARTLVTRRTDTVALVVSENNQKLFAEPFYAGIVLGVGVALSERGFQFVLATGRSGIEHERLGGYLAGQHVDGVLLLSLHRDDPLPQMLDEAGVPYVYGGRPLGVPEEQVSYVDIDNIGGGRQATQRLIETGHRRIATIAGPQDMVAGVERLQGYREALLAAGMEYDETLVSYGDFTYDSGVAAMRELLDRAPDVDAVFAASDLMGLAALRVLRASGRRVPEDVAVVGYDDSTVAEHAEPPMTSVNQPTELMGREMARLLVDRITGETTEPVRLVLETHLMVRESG
The data set can be described thus: cell_activity; day 1 dynamic range of interception, cellobiose induced; 114.83 day 3. As to conditions: chain copies: 2.

The target of a further data set is T2, I+YQR (LacI) (UniProt P03023 SEQ:1-360).
T2 chain: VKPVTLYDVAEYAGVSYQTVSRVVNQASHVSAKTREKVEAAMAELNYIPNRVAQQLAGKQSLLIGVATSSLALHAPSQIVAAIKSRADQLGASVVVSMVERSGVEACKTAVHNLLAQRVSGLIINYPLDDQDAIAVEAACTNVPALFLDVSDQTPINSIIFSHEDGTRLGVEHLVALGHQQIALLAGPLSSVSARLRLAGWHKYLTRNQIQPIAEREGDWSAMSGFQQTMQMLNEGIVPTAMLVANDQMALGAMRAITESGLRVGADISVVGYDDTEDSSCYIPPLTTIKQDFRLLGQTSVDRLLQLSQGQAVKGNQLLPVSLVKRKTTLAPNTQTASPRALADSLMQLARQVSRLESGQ
The data set can be described thus: cell_activity; day 1 dynamic range; 29.77 day 3. As to conditions: chain copies: 4.

The target of data set [1] is T3, E+YQR (CelR core, LacI-type DBD) (UniProt O87590 SEQ:1-337).
T3 chain: T1 sequence with H17Y, N22R
Put plainly: cell_activity; day 1 dynamic range; 141.52 day 3. To be noted: chain copies: 2.

The target in a further data set is I+KSL (UniProt P03023 SEQ:1-360, Y17K,Q18S,R22L). The data set can be described thus: cell_activity; day 1 dynamic range; 7.42 day 3. As to conditions: chain copies: 4.
In the next data set the target is T4, E+KSL (UniProt O87590 SEQ:1-337, Y17K,Q18S,R22L).
T4 sequence: T1 sequence with H17K, Q18S, N22L
The data set can be described thus: cell_activity; day 1 dynamic range; 71.51 day 3. To be noted: chain copies: 2.

Residue numbers refer to the chain shown, from its start.

B1: A118 attP Ottg P+1 (dsDNA)
DNA 1: TTAGTTCCTCGTTTTCTCTCGTTAATTTTGAGCGCTCAAAAAAACTAAA
DNA 2: TTTAGTTTTTTTGAGCGCTCAAAATTAACGAGAGAAAACGAGGAACTAA
Regarding B1, the binding signal in the data set with I+HQN was 15.4 fold; with E+HQN, 20.6 fold.

B2: A118 attP Ogtg (Osym) P+1 (dsDNA)
DNA 1: B1 DNA 1 with T28G, A39C
DNA 2: B1 DNA 2 with T11G, A22C
For B2, in the data set with I+YQR (LacI), the dynamic range came to 9.26 fold. The same molecule showed a binding signal in data set [1] of 20.9 fold.

B3: A118 attP Oagg P+1 (dsDNA)
DNA 1: B1 DNA 1 with T28A, T29G, A38C, A39T
DNA 2: B1 DNA 2 with T11A, T12G, A21C, A22T
Consider B3, for which the binding signal in the data set with I+KSL is 5.44 fold; in the data set with E+KSL it was 14.7 fold.

The values are drawn from patent US20250043287, “SYNTHETIC MEMORY WITH INTERCEPTING RECOMBINASE FUNCTION” (Georgia Tech Research Corporation, published 2025).
